Experimental data: doi:10.1101/2023.01.24.525215

Assays:
Test in all cases: EMSA
[1] = biological target: T1, TGA5 (Arabidopsis thaliana, UniProt Q39163 1-330)
T1 sequence: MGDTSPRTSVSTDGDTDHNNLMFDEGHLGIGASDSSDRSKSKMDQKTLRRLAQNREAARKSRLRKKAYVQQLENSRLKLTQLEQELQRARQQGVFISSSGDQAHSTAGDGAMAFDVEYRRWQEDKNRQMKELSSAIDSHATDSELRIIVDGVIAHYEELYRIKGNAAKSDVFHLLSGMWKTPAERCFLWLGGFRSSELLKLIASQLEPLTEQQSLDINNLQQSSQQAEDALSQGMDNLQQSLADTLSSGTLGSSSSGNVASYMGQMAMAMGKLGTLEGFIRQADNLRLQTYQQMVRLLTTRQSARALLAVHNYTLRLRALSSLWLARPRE

[2] = biological target: T2, WRKY53 (Arabidopsis thaliana, UniProt Q9SUP6 1-324)
T2 sequence: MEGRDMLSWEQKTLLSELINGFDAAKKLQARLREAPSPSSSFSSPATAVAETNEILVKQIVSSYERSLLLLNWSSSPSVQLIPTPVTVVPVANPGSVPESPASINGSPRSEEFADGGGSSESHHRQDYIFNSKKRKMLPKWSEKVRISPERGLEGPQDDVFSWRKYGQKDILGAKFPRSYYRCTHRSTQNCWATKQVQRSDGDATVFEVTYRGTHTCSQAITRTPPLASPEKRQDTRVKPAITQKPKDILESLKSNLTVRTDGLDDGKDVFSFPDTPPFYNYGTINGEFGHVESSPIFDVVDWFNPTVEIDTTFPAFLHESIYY

[3] = biological target: CAM5 (Arabidopsis thaliana, UniProt Q682T9 1-149)

B1: PR1 w-box probe (dsDNA)
DNA 1: TTTATTTGAAAATTGACTGTAGATATAAAC
DNA 2: GTTTATATCTACAGTCAATTTTCAAATAAA
- binding result [1]: binds
- binding result [2]: binds
- binding result [3]: no binding

B2: PDF1.2 as-1 probe (dsDNA)
DNA 1: ATGTTGTATTTGTTCGACGATGACGAAGGT
DNA 2: ACCTTCGTCATCGTCGAACAAATACAACAT
- binding result [1]: binds
- binding result [2]: no binding

B3: PDF1.2 w-box probe (dsDNA)
DNA 1: ATAATTATTCTTGACTGATGTATGCATATA
DNA 2: TATATGCATACATCAGTCAAGAATAATTAT
- binding result [2]: binds
- binding result [3]: no binding
